Consider 1 molecule from patent publication US20210338733A1 (University of Pennsylvania, published 2021).

In this experiment the target is T1, TnMUC1 (aberrantly glycosylated Tn glycoform of MUC1) as expressed by tumor cells (human, UniProt P15941 24-1255, Tn (GalNAca1-O-Ser/Thr) glycans; sites not stated).
T1 construct: whole, on cells; One molecule is used for all TnMUC1-positive target cells; In the IHC of breast tumor tissue the staining was cytoplasmic and/or membranous; also called TnMUC1 antigen; TnMUC1+ target cells (Jurkat E6-1, Hs766T, MCF7, breast cancer cell lines and tissue)
T1 sequence (P15941 24-1255): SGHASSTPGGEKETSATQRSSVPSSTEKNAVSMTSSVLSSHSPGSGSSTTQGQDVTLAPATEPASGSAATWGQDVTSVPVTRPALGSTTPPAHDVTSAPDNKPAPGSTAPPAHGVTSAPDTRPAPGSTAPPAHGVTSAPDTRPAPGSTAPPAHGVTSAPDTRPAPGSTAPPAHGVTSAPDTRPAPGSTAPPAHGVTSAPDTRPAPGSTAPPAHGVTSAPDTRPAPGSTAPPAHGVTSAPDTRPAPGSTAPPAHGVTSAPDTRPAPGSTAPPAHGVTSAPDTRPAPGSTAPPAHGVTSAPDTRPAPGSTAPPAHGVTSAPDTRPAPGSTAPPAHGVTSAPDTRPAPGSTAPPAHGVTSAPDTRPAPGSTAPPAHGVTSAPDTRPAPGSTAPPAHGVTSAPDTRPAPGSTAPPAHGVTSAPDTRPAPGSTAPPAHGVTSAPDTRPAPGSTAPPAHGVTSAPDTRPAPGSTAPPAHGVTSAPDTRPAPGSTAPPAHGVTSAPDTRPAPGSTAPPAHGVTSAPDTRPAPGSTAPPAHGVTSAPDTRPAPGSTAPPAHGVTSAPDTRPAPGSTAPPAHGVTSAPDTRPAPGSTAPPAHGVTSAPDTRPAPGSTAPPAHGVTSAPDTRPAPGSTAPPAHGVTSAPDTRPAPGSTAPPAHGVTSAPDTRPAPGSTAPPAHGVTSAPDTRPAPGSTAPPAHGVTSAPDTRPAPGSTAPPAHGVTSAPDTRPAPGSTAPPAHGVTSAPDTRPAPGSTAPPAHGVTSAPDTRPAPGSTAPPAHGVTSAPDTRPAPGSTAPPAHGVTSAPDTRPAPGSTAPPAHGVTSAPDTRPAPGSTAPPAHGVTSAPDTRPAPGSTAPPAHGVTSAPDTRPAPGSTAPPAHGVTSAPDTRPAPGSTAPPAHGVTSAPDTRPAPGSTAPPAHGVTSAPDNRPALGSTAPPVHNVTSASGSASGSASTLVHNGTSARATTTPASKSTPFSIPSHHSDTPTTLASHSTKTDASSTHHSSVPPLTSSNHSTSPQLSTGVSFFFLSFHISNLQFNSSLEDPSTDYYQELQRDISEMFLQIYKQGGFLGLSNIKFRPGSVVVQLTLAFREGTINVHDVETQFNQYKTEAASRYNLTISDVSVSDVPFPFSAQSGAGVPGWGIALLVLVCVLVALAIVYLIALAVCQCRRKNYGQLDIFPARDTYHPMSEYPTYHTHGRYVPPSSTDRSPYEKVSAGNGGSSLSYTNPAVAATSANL
Briefly: immunohistochemistry on breast cancer tissue.

B1: Anti-TnMUC1 murine monoclonal antibody clone 5E5 (antibody, V domains shown)
VH: QVQLQQSDAELVKPGSSVKISCKASGYTFTDHAIHWVKQKPEQGLEWIGHFSPGNTDIKYNDKFKGKATLTVDRSSSTAYMQLNSLTSEDSAVYFCKTSTFFFDYWGQGTTLTVSS
VL: ELVMTQSPSSLTVTAGEKVTMICKSSQSLLNSGDQKNYLTWYQQKPGQPPKLLIFWASTRESGVPDRFTGSGSGTDFTLTISSVQAEDLAVYYCQNDYSYPLTFGAGTKLELK
notes: also called 5E5 mAb; mAb 5E5
As for B1, the binding result is recorded as “binds”.
